Results reported in patent US20230272029A1, “CO-AGONISTS AT GLP-1 AND GIP RECEPTORS SUITABLE FOR ORAL DELIVERY” (Novo Nordisk A/S, priority 2020, published 2023).
Starred links: 1 amine or outer side, 2 acyl side, 3 side chain; linkers in the order of their positions; H or OH if unused. Non-standard residues stand in square brackets, D forms with d. Groups on a side chain read outwards from the residue. No end group written: not given here. *: point of attachment. C18 diacid = O=C(O)CCCCCCCCCCCCCCCCC(=O)*; γGlu = O=C(O)[C@H](CCC(=O)[*:2])N[*:1]; εLys = N[C@@H](CCCCN[*:1])C(=O)[*:2]; Aib = CC(C)(N)C(=O)O

B1: Compound No. 3 (peptide)
peptide: Y[Aib]EGTFTSDYSYYLEK([εLys-εLys-γGlu-C18 diacid])QAAQEFVNWLLAGGPSSGAPPPS-NH2
modifications: N-terminus assumed
SMILES: CC(C)C[C@H](NC(=O)[C@H](CC(C)C)NC(=O)[C@H](Cc1c[nH]c2ccccc12)NC(=O)[C@H](CC(N)=O)NC(=O)[C@@H](NC(=O)[C@H](Cc1ccccc1)NC(=O)[C@H](CCC(=O)O)NC(=O)[C@H](CCC(N)=O)NC(=O)[C@H](C)NC(=O)[C@H](C)NC(=O)[C@H](CCC(N)=O)NC(=O)[C@H](CCCCNC(=O)[C@@H](N)CCCCNC(=O)[C@@H](N)CCCCNC(=O)CC[C@H](NC(=O)CCCCCCCCCCCCCCCCC(=O)O)C(=O)O)NC(=O)[C@H](CCC(=O)O)NC(=O)[C@H](CC(C)C)NC(=O)[C@H](Cc1ccc(O)cc1)NC(=O)[C@H](Cc1ccc(O)cc1)NC(=O)[C@H](CO)NC(=O)[C@H](Cc1ccc(O)cc1)NC(=O)[C@H](CC(=O)O)NC(=O)[C@H](CO)NC(=O)[C@@H](NC(=O)[C@H](Cc1ccccc1)NC(=O)[C@@H](NC(=O)CNC(=O)[C@H](CCC(=O)O)NC(=O)C(C)(C)NC(=O)[C@@H](N)Cc1ccc(O)cc1)[C@@H](C)O)[C@@H](C)O)C(C)C)C(=O)N[C@@H](C)C(=O)NCC(=O)NCC(=O)N1CCC[C@H]1C(=O)N[C@@H](CO)C(=O)N[C@@H](CO)C(=O)NCC(=O)N[C@@H](C)C(=O)N1CCC[C@H]1C(=O)N1CCC[C@H]1C(=O)N1CCC[C@H]1C(=O)N[C@@H](CO)C(N)=O
B2: Compound No. 30 (peptide)
peptide: Y[Aib]EGTFTSDYSILLEK([εLys-εLys-γGlu-C18 diacid])QAAHEFIEWLLAGGPSSGAPPPS-OH
modifications: N-terminus assumed
SMILES: CC[C@H](C)[C@H](NC(=O)[C@H](Cc1ccccc1)NC(=O)[C@H](CCC(=O)O)NC(=O)[C@H](Cc1c[nH]cn1)NC(=O)[C@H](C)NC(=O)[C@H](C)NC(=O)[C@H](CCC(N)=O)NC(=O)[C@H](CCCCNC(=O)[C@@H](N)CCCCNC(=O)[C@@H](N)CCCCNC(=O)CC[C@H](NC(=O)CCCCCCCCCCCCCCCCC(=O)O)C(=O)O)NC(=O)[C@H](CCC(=O)O)NC(=O)[C@H](CC(C)C)NC(=O)[C@H](CC(C)C)NC(=O)[C@@H](NC(=O)[C@H](CO)NC(=O)[C@H](Cc1ccc(O)cc1)NC(=O)[C@H](CC(=O)O)NC(=O)[C@H](CO)NC(=O)[C@@H](NC(=O)[C@H](Cc1ccccc1)NC(=O)[C@@H](NC(=O)CNC(=O)[C@H](CCC(=O)O)NC(=O)C(C)(C)NC(=O)[C@@H](N)Cc1ccc(O)cc1)[C@@H](C)O)[C@@H](C)O)[C@@H](C)CC)C(=O)N[C@@H](CCC(=O)O)C(=O)N[C@@H](Cc1c[nH]c2ccccc12)C(=O)N[C@@H](CC(C)C)C(=O)N[C@@H](CC(C)C)C(=O)N[C@@H](C)C(=O)NCC(=O)NCC(=O)N1CCC[C@H]1C(=O)N[C@@H](CO)C(=O)N[C@@H](CO)C(=O)NCC(=O)N[C@@H](C)C(=O)N1CCC[C@H]1C(=O)N1CCC[C@H]1C(=O)N1CCC[C@H]1C(=O)N[C@@H](CO)C(=O)O
B3: Compound No. 40 (peptide)
peptide: Y[Aib]EGTFTSDYSK([εLys-εLys-γGlu-C18 diacid])LLEEQAAREFIEWLLAGGPSSGAPPPS-OH
modifications: N-terminus assumed
SMILES: CC[C@H](C)[C@H](NC(=O)[C@H](Cc1ccccc1)NC(=O)[C@H](CCC(=O)O)NC(=O)[C@H](CCCNC(=N)N)NC(=O)[C@H](C)NC(=O)[C@H](C)NC(=O)[C@H](CCC(N)=O)NC(=O)[C@H](CCC(=O)O)NC(=O)[C@H](CCC(=O)O)NC(=O)[C@H](CC(C)C)NC(=O)[C@H](CC(C)C)NC(=O)[C@H](CCCCNC(=O)[C@@H](N)CCCCNC(=O)[C@@H](N)CCCCNC(=O)CC[C@H](NC(=O)CCCCCCCCCCCCCCCCC(=O)O)C(=O)O)NC(=O)[C@H](CO)NC(=O)[C@H](Cc1ccc(O)cc1)NC(=O)[C@H](CC(=O)O)NC(=O)[C@H](CO)NC(=O)[C@@H](NC(=O)[C@H](Cc1ccccc1)NC(=O)[C@@H](NC(=O)CNC(=O)[C@H](CCC(=O)O)NC(=O)C(C)(C)NC(=O)[C@@H](N)Cc1ccc(O)cc1)[C@@H](C)O)[C@@H](C)O)C(=O)N[C@@H](CCC(=O)O)C(=O)N[C@@H](Cc1c[nH]c2ccccc12)C(=O)N[C@@H](CC(C)C)C(=O)N[C@@H](CC(C)C)C(=O)N[C@@H](C)C(=O)NCC(=O)NCC(=O)N1CCC[C@H]1C(=O)N[C@@H](CO)C(=O)N[C@@H](CO)C(=O)NCC(=O)N[C@@H](C)C(=O)N1CCC[C@H]1C(=O)N1CCC[C@H]1C(=O)N1CCC[C@H]1C(=O)N[C@@H](CO)C(=O)O
B4: Compound No. 29 (peptide)
peptide: Y[Aib]EGTFTSDYSILLEK([εLys-εLys-γGlu-C18 diacid])QAAQEFIEWLLAGGPSSGAPPPS-OH
modifications: N-terminus assumed
SMILES: CC[C@H](C)[C@H](NC(=O)[C@H](Cc1ccccc1)NC(=O)[C@H](CCC(=O)O)NC(=O)[C@H](CCC(N)=O)NC(=O)[C@H](C)NC(=O)[C@H](C)NC(=O)[C@H](CCC(N)=O)NC(=O)[C@H](CCCCNC(=O)[C@@H](N)CCCCNC(=O)[C@@H](N)CCCCNC(=O)CC[C@H](NC(=O)CCCCCCCCCCCCCCCCC(=O)O)C(=O)O)NC(=O)[C@H](CCC(=O)O)NC(=O)[C@H](CC(C)C)NC(=O)[C@H](CC(C)C)NC(=O)[C@@H](NC(=O)[C@H](CO)NC(=O)[C@H](Cc1ccc(O)cc1)NC(=O)[C@H](CC(=O)O)NC(=O)[C@H](CO)NC(=O)[C@@H](NC(=O)[C@H](Cc1ccccc1)NC(=O)[C@@H](NC(=O)CNC(=O)[C@H](CCC(=O)O)NC(=O)C(C)(C)NC(=O)[C@@H](N)Cc1ccc(O)cc1)[C@@H](C)O)[C@@H](C)O)[C@@H](C)CC)C(=O)N[C@@H](CCC(=O)O)C(=O)N[C@@H](Cc1c[nH]c2ccccc12)C(=O)N[C@@H](CC(C)C)C(=O)N[C@@H](CC(C)C)C(=O)N[C@@H](C)C(=O)NCC(=O)NCC(=O)N1CCC[C@H]1C(=O)N[C@@H](CO)C(=O)N[C@@H](CO)C(=O)NCC(=O)N[C@@H](C)C(=O)N1CCC[C@H]1C(=O)N1CCC[C@H]1C(=O)N1CCC[C@H]1C(=O)N[C@@H](CO)C(=O)O
B5: Compound No. 42 (peptide)
peptide: Y[Aib]EGTFTSDYSIYLEEQAAREFINWLLAGGPSK([εLys-εLys-γGlu-C18 diacid])GAPPPS-OH
modifications: N-terminus assumed
SMILES: CC[C@H](C)[C@H](NC(=O)[C@H](Cc1ccccc1)NC(=O)[C@H](CCC(=O)O)NC(=O)[C@H](CCCNC(=N)N)NC(=O)[C@H](C)NC(=O)[C@H](C)NC(=O)[C@H](CCC(N)=O)NC(=O)[C@H](CCC(=O)O)NC(=O)[C@H](CCC(=O)O)NC(=O)[C@H](CC(C)C)NC(=O)[C@H](Cc1ccc(O)cc1)NC(=O)[C@@H](NC(=O)[C@H](CO)NC(=O)[C@H](Cc1ccc(O)cc1)NC(=O)[C@H](CC(=O)O)NC(=O)[C@H](CO)NC(=O)[C@@H](NC(=O)[C@H](Cc1ccccc1)NC(=O)[C@@H](NC(=O)CNC(=O)[C@H](CCC(=O)O)NC(=O)C(C)(C)NC(=O)[C@@H](N)Cc1ccc(O)cc1)[C@@H](C)O)[C@@H](C)O)[C@@H](C)CC)C(=O)N[C@@H](CC(N)=O)C(=O)N[C@@H](Cc1c[nH]c2ccccc12)C(=O)N[C@@H](CC(C)C)C(=O)N[C@@H](CC(C)C)C(=O)N[C@@H](C)C(=O)NCC(=O)NCC(=O)N1CCC[C@H]1C(=O)N[C@@H](CO)C(=O)N[C@@H](CCCCNC(=O)[C@@H](N)CCCCNC(=O)[C@@H](N)CCCCNC(=O)CC[C@H](NC(=O)CCCCCCCCCCCCCCCCC(=O)O)C(=O)O)C(=O)NCC(=O)N[C@@H](C)C(=O)N1CCC[C@H]1C(=O)N1CCC[C@H]1C(=O)N1CCC[C@H]1C(=O)N[C@@H](CO)C(=O)O
B6: Compound No. 41 (peptide)
peptide: Y[Aib]EGTFTSDYSK([εLys-εLys-γGlu-C18 diacid])YLEEQAAREFINWLLAGGPSSGAPPPS-OH
modifications: N-terminus assumed
SMILES: CC[C@H](C)[C@H](NC(=O)[C@H](Cc1ccccc1)NC(=O)[C@H](CCC(=O)O)NC(=O)[C@H](CCCNC(=N)N)NC(=O)[C@H](C)NC(=O)[C@H](C)NC(=O)[C@H](CCC(N)=O)NC(=O)[C@H](CCC(=O)O)NC(=O)[C@H](CCC(=O)O)NC(=O)[C@H](CC(C)C)NC(=O)[C@H](Cc1ccc(O)cc1)NC(=O)[C@H](CCCCNC(=O)[C@@H](N)CCCCNC(=O)[C@@H](N)CCCCNC(=O)CC[C@H](NC(=O)CCCCCCCCCCCCCCCCC(=O)O)C(=O)O)NC(=O)[C@H](CO)NC(=O)[C@H](Cc1ccc(O)cc1)NC(=O)[C@H](CC(=O)O)NC(=O)[C@H](CO)NC(=O)[C@@H](NC(=O)[C@H](Cc1ccccc1)NC(=O)[C@@H](NC(=O)CNC(=O)[C@H](CCC(=O)O)NC(=O)C(C)(C)NC(=O)[C@@H](N)Cc1ccc(O)cc1)[C@@H](C)O)[C@@H](C)O)C(=O)N[C@@H](CC(N)=O)C(=O)N[C@@H](Cc1c[nH]c2ccccc12)C(=O)N[C@@H](CC(C)C)C(=O)N[C@@H](CC(C)C)C(=O)N[C@@H](C)C(=O)NCC(=O)NCC(=O)N1CCC[C@H]1C(=O)N[C@@H](CO)C(=O)N[C@@H](CO)C(=O)NCC(=O)N[C@@H](C)C(=O)N1CCC[C@H]1C(=O)N1CCC[C@H]1C(=O)N1CCC[C@H]1C(=O)N[C@@H](CO)C(=O)O

Key:
[1] = target: human GLP-1 receptor (human, UniProt P43220 24-463); test: cell-based or functional assay
[2] = target: T1, human GIP receptor (human, UniProt P48546 22-466); test: cell-based or functional assay
T1 sequence (looked up): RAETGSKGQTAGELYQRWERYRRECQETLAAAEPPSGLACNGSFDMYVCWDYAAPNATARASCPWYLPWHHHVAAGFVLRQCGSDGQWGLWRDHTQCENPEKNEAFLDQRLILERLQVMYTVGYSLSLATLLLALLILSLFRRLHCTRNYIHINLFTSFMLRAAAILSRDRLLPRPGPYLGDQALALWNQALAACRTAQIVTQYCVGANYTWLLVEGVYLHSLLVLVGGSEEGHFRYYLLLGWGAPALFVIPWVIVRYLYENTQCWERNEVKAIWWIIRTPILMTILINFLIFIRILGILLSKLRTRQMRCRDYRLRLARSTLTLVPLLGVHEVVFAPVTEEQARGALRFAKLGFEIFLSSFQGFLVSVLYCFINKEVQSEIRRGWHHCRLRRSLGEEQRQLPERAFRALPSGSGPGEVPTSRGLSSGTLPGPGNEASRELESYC

| Binder | hGLP-1R, CRE Luc 0% HSA EC50 (pM) [1] [pM] | hGLP-1R, CRE Luc 1% HSA EC50 (pM) [1] [pM] | hGIPR, CRE Luc 0% HSA EC50 (pM) [2] [pM] | hGIPR, CRE Luc 1% HSA EC50 (pM) [2] [pM] |
| --- | --- | --- | --- | --- |
| B1 | 8.5 | 626 | 6.9 | 229 |
| B2 | 7.3 | 268 | 3.2 | 185 |
| B3 | 6.4 | 334 | 9.5 | 501 |
| B4 | 16.8 | 378 | 3.8 | 102 |
| B5 | 2.3 | 83.5 | 5.9 | 306 |
| B6 | 1.2 | 31.4 | 4.9 | 79.3 |
